The values that follow come from article PMC4823331.

The target of this assay is pneumolysin (Streptococcus pneumoniae) (UniProt P0C2J9).

Chain of pneumolysin (P0C2J9 whole entry): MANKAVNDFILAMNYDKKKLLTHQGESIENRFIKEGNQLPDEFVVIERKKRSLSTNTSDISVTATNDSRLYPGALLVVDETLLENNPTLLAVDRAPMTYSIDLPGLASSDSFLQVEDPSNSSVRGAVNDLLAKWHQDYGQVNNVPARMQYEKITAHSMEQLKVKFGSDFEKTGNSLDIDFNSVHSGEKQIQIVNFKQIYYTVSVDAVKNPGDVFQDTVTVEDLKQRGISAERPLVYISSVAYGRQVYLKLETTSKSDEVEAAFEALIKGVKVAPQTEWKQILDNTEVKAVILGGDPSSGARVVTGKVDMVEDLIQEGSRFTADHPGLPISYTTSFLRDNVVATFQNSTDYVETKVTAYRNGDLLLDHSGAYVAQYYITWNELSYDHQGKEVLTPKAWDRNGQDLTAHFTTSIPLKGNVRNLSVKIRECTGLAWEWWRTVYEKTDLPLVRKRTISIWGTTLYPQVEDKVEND

For “pneumolysin (from UniProt P0C2J9 1-471) (natural protein)”, the k0.5 of the reciprocal lag length before lysis of sheep erythrocytes against pneumolysin concentration (fit with Eq. 3), 30.0 °C was 143 nM; the k0.5 of the reciprocal lag length before lysis of sheep erythrocytes against pneumolysin concentration (fit with Eq. 3), 33.0 °C was 176 nM; the k0.5 of the reciprocal lag length before lysis of sheep erythrocytes against pneumolysin concentration (fit with Eq. 3), 35.0 °C was determined as 243 nM; the k0.5 of the reciprocal lag length before lysis of sheep erythrocytes against pneumolysin concentration (fit with Eq. 3), 37.0 °C was determined as 405 nM. For the same substance, the k0.5 of the reciprocal lag length before lysis of sheep erythrocytes against pneumolysin concentration (fit with Eq. 3), 38.5 °C worked out at 266 nM.
